Assays:
[1] = tested on: BCL2allKO HCT116 cells reconstituted with Dox-inducible mC-BAK; experiment: Dox-induced cell death by IncuCyte imaging of SYTOX Green uptake (autoactivation); assay type: cell-based, human; details: for AUC (48 hr) of SYTOX Green counts/confluence: mC-BAK BCL2allKO HCT116 + Dox + qVD, average, N = 3
From the text: For mammalian cell culture experiments, we cloned the full length human BAK cDNA into pCR 2.1 TOPO vector, mutated BAK as needed, and PCR amplified the BAK gene for cloning into the BamHI and NotI sites of pRETROX mCherry vector for retroviral transduction. Amplification and mutagenesis primers are included in Supplementary Table 4. To test direct BAK activation and BAK autoactivation in cells, we produced cells stably expressing mCherry-human BAK (mC-BAK) ± human BID (BID) on a genetic background devoid of the entire BCL-2 family repertoire (all 17 BCL-2 genes), BCL2allKO HCT116, as described by the Xu Luo laboratory. We expressed WT and mutant mC-BAK using the doxycycline (Dox)-based inducible Tet-On 3G retroviral system from the pRetroX-TRE3G-Puro^R in BCL2allKO HCT116 cells expressing the Tet3G from pRetroX-Tet3G-Blast^R. We selected cells with puromycin (2.5 µg/mL) and blasticidin (2 µg/mL) starting at 2 days after retroviral transduction. To enrich for populations of cells that express mC-BAK, we treated cells with low Dox dose (25 ng/mL) and fluorescence-activated cell sorted (FACS) the mCherry positive cells. We performed the enrichment twice before cell death analysis. One caveat of our cellular system is tagging BAK with N-terminal mCherry, which may affect folding efficiency, degradation, and BAK interactome.
(§1) We seeded cells in 24-well (100,000 cells/well), 96-well (15,000 cells/well), or 384-well (10,000 cells/well) plates coated with 10 µg/mL fibronectin. After ≥24 h of attachment and recovery, we induced cell death with Dox (up to 1000 ng/mL) and monitored SYTOX Green (25 nM) uptake by Incucyte imaging. This dye marks cells with compromised plasma membrane integrity. mC-BAK expressed before 24 h, which coincided with detectable cell death. We monitored Incucyte imaging for up to 48 h, followed by endpoint FACS analysis to measure the extent of cell death based on SYTOX Green positive cells on FACSCalibur systems (BD Biosciences). As expected, cells with low mCherry fluorescence were refractory to cell death.

[2] = tested on: BCL2allKO HCT116 cells reconstituted with mC-BAK; experiment: Endpoint FACS analysis of SYTOX Green positive cells; assay type: cell-based, human; details: average, N = 3
Experimental: as §1

BAK [3] = experiment: Dye-based thermal shift assay (SYPRO Orange); assay type: physicochemical, human; details: rebuttal
Experimental: To control for effect of mutations on protein stability, which may confound interpretation of impairment in BAK autoactivation, we measured the Tm of BAK WT and mutants (Supplementary Fig. 3f).
(§2) We carried out TSA in 20 µL reactions in 384-well PCR plate (Cat# AB1384, Thermo Fisher Scientific) in 20 mM HEPES pH 7.0, 150 mM NaCl, 2 mM DTT), SYPRO ^TM Orange (5×) and 0.25 mg/mL purified BAK. To remove air bubbles we sealed assay plates with MicroAmp Optical Adhesive, incubated them for 2–5 min, and centrifuged them (1000 × rpm). We subjected the assay plates to 25–99 °C thermal gradient with 1°/minute increment and recorded fluorescence using Applied Biosystems Quant Studio 5. We performed three experiments in quadruplicate for each sample. We performed data processing and visualization in RISE, and final data analysis in Excel and GraphPad Prism. We also carried out dye-free TSA using capillary-based Prometheus NT.48 Nano Differential Scanning Fluorimetry (Nanotemper) in the same buffer conditions with 15 μM BAK. Melting temperature (Tm) values were obtained from the first derivative of melting scans.

BAK [4] = experiment: Dye-free nano Differential Scanning Fluorimetry thermal shift assay; assay type: physicochemical, human; details: without DTT; mean of N = 3; Suppl. Fig. 7h
Experimental: Through rational design and structural analysis, we expand the list of activated BAK complexes, supporting requisite BH3 ligand-induced destabilization of helix α1 (see below).
as §2

[5] = Liposome permeabilization by WT and mutant BAK proteins (autoactivation, or direct activation by BID BH3); assay type: biochemical; details: no BH3 peptide; liposomes with […] DGS-NTA(Ni); Fig. 1a
Experimental: Human BAK-∆TM-His6 (BAK)[26] spontaneously permeabilizes liposomes above a certain dose (>100 nM, Fig. 1a). In these dye-release assays[43]–[46], BAK is recruited via His-tag to liposomes containing 2.5 µM of the lipid 1,2-dioleoyl-sn-glycero-3-[(N-(5-amino-1-carboxypentyl)iminodiacetic acid)succinyl] (nickel salt), DGS-NTA(Ni).
To probe autoactivation with full-length BAK, we mutated hydrophobic residues at positions (0)−(6) of the BH3 to alanine or arginine, and D83, which forms the conserved salt bridge (s) with R127, to alanine (Fig. 2a). The BH3 residues participate in autoactivation from the ligand side [hydrophobic positions (0)–(5) and D83(s)] and also from the receptor groove side [hydrophobic positions (3)–(5)] (Fig. 2a). Thus, substitutions at positions (3)–(5) should affect receptor and ligand activities and are predicted to impact BAK activation more severely than mutations of positions (0)–(2), which affect only ligand activity. […] In contrast, almost all (2)–(5) and (s) missense mutants were considerably impaired in autoactivation (Fig. 2b and Supplementary Fig. 3a). […] Despite impairment in autoactivation, all missense mutants were directly activated by BID BH3 peptide, although they induced lower level of permeabilization compared to WT BAK (Fig. 2b and Supplementary Fig. 3a).
We performed liposome permeabilization assays as previously described[43]–[46]. […] (nickel salt) [DGS NTA(Ni), 2.5 μM final concentration in each assay] (Avanti Polar Lipids). We prepared 12.5 mM fluorophore; 8-aminonaphthalene-1, 3, 6-trisulfonic acid, disodium salt (ANTS) and 45 mM quencher; p-xylene-bis-pyridiniumbromide (DPX) in LUV buffer (10 mM HEPES pH 6.8, 200 mM KCl and 5 mM MgCl2). We mixed the lipid film in ANTS/DPX solution by vortexing and sonication (~15 min) followed by extrusion through polycarbonate membrane of 2 μm pore size (Avanti Polar lipids) to generate homogenous large unilamellar vesicles (LUVs). We separated LUVs from free ANTS/DPX by S500 size exclusion chromatography and stored them at 4 °C in the dark. We prepared peptide and protein dilutions in 96-well black flat bottom plates (Costar) kept on ice. ANTS release from permeabilized liposomes causes an increase in fluorescence, which we monitored at 37 °C for 90 min using a CLARIOSTAR microplate reader (BMG Labtech) set at excitation and emission wavelengths of 360 and 530 nm, respectively. We normalized the data relative to maximum and minimum fluorescence induced by 3% CHAPS and buffer controls, respectively. We quantified liposome permabilization by integrating area under curve (AUC) of normalized traces based on the Simpson’s equation, and analyzed that data in Excel and GraphPad Prism. AUC measurements reflect the kinetic and extent of liposome permeabilization and provide quantitative means for comparison between different experimental conditions (e.g., BAK mutants with gross or partial variation in activity). Variability in permeabilization of different liposomes is common and our analyses compare among conditions investigated with the same liposomes. Although the absolute permeabilization values may differ, the trends for the same conditions are always very similar between different liposomes.

Molecule	Dox-induced cell death ([1]; IncuCyte SYTOX Green up to 48 h)	AUC (48 hr) of SYTOX Green counts/confluence ([1]; Dox 100 ng/mL)	AUC (48 hr) of SYTOX Green counts/confluence ([1]; Dox 1000 ng/mL)	flow cytometry SYTOX Green counts/confluence (48 hr) ([2]; Dox 100 ng/mL)	flow cytometry SYTOX Green counts/confluence (48 hr) ([2]; Dox 1000 ng/mL)	difference in Tm compared to WT (BAK [3]) [°C]	Melting temperature for 3 exps, Mean (BAK [4]) [°C]	BAK dose above which liposomes are spontaneously permeabilized [5] [nM]
I81R (3): BAK missense mutant (protein, UniProt Q16611 2-211, looked up, variant I81R) Bcl-2 homologous …: ASGQGPGPPRQECGEPALPSASEEQVAQDTEEVFRSYVFYRHQQEQEAEGVAAPADPEMVTLPLQPSSTMGQVGRQLAIRGDDINRRYDSEFQTMLQHLQPTAENAYEYFTKIATSLFESGINWGRVVALLGFGYRLALHVYQHGLTGFLGQVTRFVVDFMLHHCIARWIAQRGGWVAALNLGNGPILNVLVVLGVVLLGQFVVRRFFKS	inactive irrespective of Dox dose	331.061	348.847	2.517	4.75	< 2	–	–
WT BAK: C-terminus truncated recombinant human BAK with C-terminal 6× histidine tag (protein, UniProt Q16611 2-211, looked up) Bcl-2 homologous …: ASGQGPGPPRQECGEPALPSASEEQVAQDTEEVFRSYVFYRHQQEQEAEGVAAPADPEMVTLPLQPSSTMGQVGRQLAIIGDDINRRYDSEFQTMLQHLQPTAENAYEYFTKIATSLFESGINWGRVVALLGFGYRLALHVYQHGLTGFLGQVTRFVVDFMLHHCIARWIAQRGGWVAALNLGNGPILNVLVVLGVVLLGQFVVRRFFKS	–	–	–	–	–	–	77	> 100
